These results are taken from US20260167714A1 (COHERUS BIOSCIENCES, published 2026).

Test [1] concerns the target T1, LILRA3 (human, UniProt Q8N6C8 24-439).
T1 construct: Bought protein; limits of the part used are marked by bold type not visible here; whole entry named; also called recombinant human LILRA3
The experiment in a line: SPR, Biacore 8K cross-reactivity study, single concentration 100 nM; upper end of the range 600-700 nM. How it is done:
(§1) SPR was used to determine the specificity of four humanized anti-ILT4 mAbs for binding to LILRB2 and to determine any cross-reactivity with nine other LILRA and LILRB family members. LILR proteins were purchased from Acro Biosystems or R&D Systems, with sequence provided below. The studies were performed with a Biacore 8K instrument using a CM4 sensor chip with a running buffer of HBS-P+, 100 μg/mL BSA. Anti-human Fc specific capture surfaces were prepared using standard amine coupling chemistry. MAb was captured to flow cell 2 with flow cell 1 serving as the reference flow cell. Each of the nine family members and LILRB2 were injected at 100 nM at 30 μL/min for 90 sec with 240 sec of dissociation. […] All sensorgrams were doubled-referenced during processing of the data.
For orientation: Surface plasmon resonance follows binding to a sensor surface in real time, without labels.

Test [2] deals with T2, recombinant human ILT4 (LILRB2) (human, UniProt Q8N423 22-460).
T2 construct: Bought protein (Acro Biosystems or R&D Systems); also called ILTR4
T2 sequence (Q8N423 other isoform, or with tags, fused parts or gaps limits assumed): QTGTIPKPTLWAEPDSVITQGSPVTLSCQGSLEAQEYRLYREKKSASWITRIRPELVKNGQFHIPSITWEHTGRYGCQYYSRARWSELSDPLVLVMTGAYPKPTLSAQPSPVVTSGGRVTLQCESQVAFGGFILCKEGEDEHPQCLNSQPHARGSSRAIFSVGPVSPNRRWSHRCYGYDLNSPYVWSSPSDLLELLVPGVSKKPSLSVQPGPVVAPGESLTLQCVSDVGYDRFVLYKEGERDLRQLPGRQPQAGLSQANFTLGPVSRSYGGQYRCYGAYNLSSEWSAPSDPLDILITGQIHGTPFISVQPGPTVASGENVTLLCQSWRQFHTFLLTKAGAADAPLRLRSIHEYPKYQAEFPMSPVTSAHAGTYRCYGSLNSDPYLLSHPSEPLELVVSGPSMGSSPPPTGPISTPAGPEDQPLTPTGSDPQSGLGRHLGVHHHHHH
Description: SPR, high resolution kinetics, triplicate, LALA antibody; 95% CI in parentheses.

The target of test [3] is T2, recombinant human ILT4 (LILRB2). The experiment in a line: SPR, Biacore T200, mAb captured on anti-Fc, ILT4 injected, medium resolution, 25 C. The method, boiled down:
(§2)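 Mouse, chimeric or humanized mAbs captured on anti-Fc surfaces (CM4 chip); ILT4 injected at 101 to 0.79 nM, 2-fold series, 90 s association, 1200 s dissociation. Run at 25° C in HBS-P+ pH 7.4 with 100 μg/ml BSA; double-referenced global 1:1 fit with mass-transport term, KD=koff/kon.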

For test [4] the target is unchanged. Description: KinExA, solution equilibrium, n-curve analysis. The protocol:
Kinetic Exclusion Assay (KinExA®) was performed to measure the equilibrium binding affinity and kinetics between human ILT4 and four humanized LALA-Fc modified antibodies in solution. For affinity analysis, the equilibrium dissociation constant, KD, was experimentally determined and reflects the strength of the binding interaction. The rate of association, kₒₙ, was also experimentally determined, while the rate of dissociation, koff, is calculated based on the following equation: koff=KD×kₒₙ
The binding affinity (KD), association (kₒₙ), and dissociation rate constants (koff) were measured for 4 different Humanized LALA IgG antibodies to ILT4 using KinExA. An n-curve analysis of at least two different curves, run at two different CBP concentrations, was used to determine the KD of the interactions The ILT4 was used as the concentration reference for all curves. All of the binding systems have low error and well defined 95% confidence intervals giving confidence to the measurements: […]

The target in test [5] is T1, LILRA3. Description: SPR, Biacore 8K, mAb captured on anti-human Fc, LILRA3 at 100 nM; legend: + weak binding (~600-700 nM KD). The protocol:
as §1

Test [6] addresses T2, recombinant human ILT4 (LILRB2). Description: SPR, Biacore 8K, mAb captured on anti-human Fc, LILRB2 at 100 nM; legend: ++++ tight binding (<100 pM KD). How it is done:
as §1

Test [7] deals with T1, LILRA3. The experiment in a line: SPR, Biacore 8K cross-reactivity study, single concentration 100 nM; lower end of the range 600-700 nM. The protocol:
as §1

The target in the next test is T3, LILRB3 (human, UniProt O75022 24-443).
T3 construct: Bought protein; limits of the extracellular domain are marked by bold type not visible here; whole entry named; also called recombinant human LILRB3; ILT5
T3 sequence (O75022 other isoform, or with tags, fused parts or gaps): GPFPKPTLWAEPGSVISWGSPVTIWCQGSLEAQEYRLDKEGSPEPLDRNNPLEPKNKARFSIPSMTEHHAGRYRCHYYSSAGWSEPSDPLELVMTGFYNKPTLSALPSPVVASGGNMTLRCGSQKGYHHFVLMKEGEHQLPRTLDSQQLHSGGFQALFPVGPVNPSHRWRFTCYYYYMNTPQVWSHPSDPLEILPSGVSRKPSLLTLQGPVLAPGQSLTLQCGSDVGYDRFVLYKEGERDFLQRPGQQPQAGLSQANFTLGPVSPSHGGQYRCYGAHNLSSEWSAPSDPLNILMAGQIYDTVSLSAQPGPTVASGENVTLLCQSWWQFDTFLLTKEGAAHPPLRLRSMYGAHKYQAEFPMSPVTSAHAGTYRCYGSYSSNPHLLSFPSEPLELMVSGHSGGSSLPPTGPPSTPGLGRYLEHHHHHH
Description: SPR, Biacore 8K, mAb captured on anti-human Fc, analyte injected. How it is done: as §1

A further test has as its target T4, LILRB4 (human, UniProt Q8NHJ6 22-259).
T4 construct: Bought protein; limits of the extracellular domain are marked by bold type not visible here; whole entry named; also called recombinant human LILRB4; ILT3
The description is as above. The protocol:
as §1

The target of a further test is T5, LILRA5 (human, UniProt A6NI73 42-268).
T5 construct: Bought protein; limits of the extracellular domain are marked by bold type not visible here; whole entry named; also called recombinant human LILRA5
T5 sequence (A6NI73 other isoform, or with tags, fused parts or gaps): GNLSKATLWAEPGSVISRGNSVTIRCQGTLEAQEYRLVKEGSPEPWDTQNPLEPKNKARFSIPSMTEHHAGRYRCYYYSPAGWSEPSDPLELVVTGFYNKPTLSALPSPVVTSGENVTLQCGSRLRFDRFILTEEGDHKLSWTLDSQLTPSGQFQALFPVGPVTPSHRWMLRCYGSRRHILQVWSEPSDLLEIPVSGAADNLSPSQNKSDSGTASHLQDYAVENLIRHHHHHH
The test is described as above. The protocol: as §1

A further test concerns the target T6, LILRA4 (human, UniProt P59901 24-446).
T6 construct: Bought protein; limits of the extracellular domain are marked by bold type not visible here; whole entry named; also called recombinant human LILRA4
Described as above. The protocol:
as §1

The target of the next test is T7, LILRA2 (human, UniProt Q8N149 24-449).
T7 construct: Bought protein; limits of the extracellular domain are marked by bold type not visible here; whole entry named; also called recombinant human LILRA2
T7 sequence (Q8N149 other isoform, or with tags, fused parts or gaps): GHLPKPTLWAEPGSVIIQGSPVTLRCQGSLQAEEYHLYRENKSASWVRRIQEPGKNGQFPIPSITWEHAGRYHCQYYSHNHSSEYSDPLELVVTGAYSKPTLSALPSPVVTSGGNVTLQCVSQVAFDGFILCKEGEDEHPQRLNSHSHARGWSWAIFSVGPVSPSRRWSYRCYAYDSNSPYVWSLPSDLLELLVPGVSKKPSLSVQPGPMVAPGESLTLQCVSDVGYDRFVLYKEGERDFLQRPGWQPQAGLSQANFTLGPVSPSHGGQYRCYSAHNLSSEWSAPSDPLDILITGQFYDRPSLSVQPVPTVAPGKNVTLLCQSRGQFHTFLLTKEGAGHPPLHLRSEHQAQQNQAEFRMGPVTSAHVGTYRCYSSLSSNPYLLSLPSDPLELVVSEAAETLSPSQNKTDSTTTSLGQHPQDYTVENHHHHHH
The description is as above. How it is done:
as §1

A further test concerns the target T8, LILRA6 (human, UniProt Q6PI73 24-447).
T8 construct: Bought protein; limits of the extracellular domain are marked by bold type not visible here; whole entry named; also called recombinant human LILRA6
The description is as above. The protocol: as §1

Test [8] has as its target T2, recombinant human ILT4 (LILRB2). The experiment in a line: SPR, Biacore T200, medium resolution; koff held at its limit of 4.27e-5 s^-1. The essentials:
as §2

Test [9] deals with T9, human ILT4 expressed on cells (human, UniProt Q8N423 22-597).
T9 construct: whole, on cells; The same entry is used for endogenous ILT4 of human macrophages; also called CHO-S/ILT4 cells; ILT4-CHO cells
T9 sequence (Q8N423 22-597): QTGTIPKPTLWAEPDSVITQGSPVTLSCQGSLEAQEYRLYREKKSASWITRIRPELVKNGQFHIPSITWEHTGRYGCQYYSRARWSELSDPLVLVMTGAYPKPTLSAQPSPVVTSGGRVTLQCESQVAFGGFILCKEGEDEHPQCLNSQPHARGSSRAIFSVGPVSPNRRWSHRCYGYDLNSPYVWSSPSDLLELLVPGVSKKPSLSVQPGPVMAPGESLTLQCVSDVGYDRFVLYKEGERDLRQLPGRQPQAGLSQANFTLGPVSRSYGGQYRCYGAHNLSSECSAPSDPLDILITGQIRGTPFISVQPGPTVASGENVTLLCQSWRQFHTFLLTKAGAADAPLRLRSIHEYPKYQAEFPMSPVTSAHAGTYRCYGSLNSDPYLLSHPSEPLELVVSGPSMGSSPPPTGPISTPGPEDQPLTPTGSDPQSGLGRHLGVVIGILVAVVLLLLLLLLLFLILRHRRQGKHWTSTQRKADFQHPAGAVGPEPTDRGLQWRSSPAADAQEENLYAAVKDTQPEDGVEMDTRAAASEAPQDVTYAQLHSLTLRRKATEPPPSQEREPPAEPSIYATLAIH
The experiment in a line: flow based HLA-G blocking assay.

For the next test, the target named is T10, LILRA1 (human, UniProt O75019 17-461).
T10 construct: Bought protein; limits of the extracellular domain are marked by bold type not visible here; whole entry named; also called recombinant human LILRA1
T10 sequence (O75019 other isoform, or with tags, fused parts or gaps): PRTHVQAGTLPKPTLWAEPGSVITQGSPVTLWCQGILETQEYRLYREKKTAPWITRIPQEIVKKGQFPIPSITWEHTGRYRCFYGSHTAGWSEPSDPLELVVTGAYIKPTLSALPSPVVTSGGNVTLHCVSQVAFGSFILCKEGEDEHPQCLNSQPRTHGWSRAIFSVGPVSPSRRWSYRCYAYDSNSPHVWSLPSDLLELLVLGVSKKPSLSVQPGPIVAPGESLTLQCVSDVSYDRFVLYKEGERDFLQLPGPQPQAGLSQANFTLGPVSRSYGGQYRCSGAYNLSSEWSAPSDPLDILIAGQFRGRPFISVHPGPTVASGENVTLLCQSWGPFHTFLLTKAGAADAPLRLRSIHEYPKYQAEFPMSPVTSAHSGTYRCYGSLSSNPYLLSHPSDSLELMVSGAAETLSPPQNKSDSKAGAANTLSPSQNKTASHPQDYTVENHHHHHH
The experiment in a line: SPR, Biacore 8K cross-reactivity study. The protocol:
as §1

Test [10] has as its target T2, recombinant human ILT4 (LILRB2). Description: SPR, high resolution kinetics, triplicate, LALA antibody.

T1 sequence (Q8N6C8 24-439 A105V limits assumed): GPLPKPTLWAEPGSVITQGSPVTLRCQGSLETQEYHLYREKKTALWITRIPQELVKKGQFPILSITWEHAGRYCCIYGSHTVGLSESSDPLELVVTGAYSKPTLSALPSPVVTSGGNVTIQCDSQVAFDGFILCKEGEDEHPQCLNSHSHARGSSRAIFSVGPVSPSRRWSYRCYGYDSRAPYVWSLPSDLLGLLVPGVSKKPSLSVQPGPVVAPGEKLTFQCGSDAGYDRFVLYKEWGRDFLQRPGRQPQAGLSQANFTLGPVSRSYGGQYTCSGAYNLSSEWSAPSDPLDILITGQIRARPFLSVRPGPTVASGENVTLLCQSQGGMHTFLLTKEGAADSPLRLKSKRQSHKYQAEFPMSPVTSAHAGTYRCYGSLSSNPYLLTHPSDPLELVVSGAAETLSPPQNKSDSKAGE
T4 sequence (Q8NHJ6 other isoform, or with tags, fused parts or gaps): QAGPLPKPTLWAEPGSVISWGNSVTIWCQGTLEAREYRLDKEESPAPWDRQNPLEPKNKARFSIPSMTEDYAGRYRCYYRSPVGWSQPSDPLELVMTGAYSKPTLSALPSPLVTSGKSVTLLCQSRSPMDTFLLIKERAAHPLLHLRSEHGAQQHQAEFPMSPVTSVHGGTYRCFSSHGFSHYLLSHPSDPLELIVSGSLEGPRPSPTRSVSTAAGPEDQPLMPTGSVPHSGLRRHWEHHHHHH
T6 sequence (P59901 other isoform, or with tags, fused parts or gaps): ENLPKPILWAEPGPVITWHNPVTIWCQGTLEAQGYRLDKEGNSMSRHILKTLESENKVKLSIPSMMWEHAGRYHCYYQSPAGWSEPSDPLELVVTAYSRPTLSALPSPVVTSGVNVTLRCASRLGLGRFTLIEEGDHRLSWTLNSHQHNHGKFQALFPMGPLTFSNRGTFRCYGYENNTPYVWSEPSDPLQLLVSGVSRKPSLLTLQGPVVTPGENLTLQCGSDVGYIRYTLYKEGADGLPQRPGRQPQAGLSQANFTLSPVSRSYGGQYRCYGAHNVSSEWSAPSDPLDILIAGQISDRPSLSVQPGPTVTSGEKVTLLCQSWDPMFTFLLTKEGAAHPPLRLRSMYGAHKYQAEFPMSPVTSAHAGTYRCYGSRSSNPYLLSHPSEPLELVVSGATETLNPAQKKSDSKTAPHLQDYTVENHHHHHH
T8 sequence (Q6PI73 other isoform, or with tags, fused parts or gaps): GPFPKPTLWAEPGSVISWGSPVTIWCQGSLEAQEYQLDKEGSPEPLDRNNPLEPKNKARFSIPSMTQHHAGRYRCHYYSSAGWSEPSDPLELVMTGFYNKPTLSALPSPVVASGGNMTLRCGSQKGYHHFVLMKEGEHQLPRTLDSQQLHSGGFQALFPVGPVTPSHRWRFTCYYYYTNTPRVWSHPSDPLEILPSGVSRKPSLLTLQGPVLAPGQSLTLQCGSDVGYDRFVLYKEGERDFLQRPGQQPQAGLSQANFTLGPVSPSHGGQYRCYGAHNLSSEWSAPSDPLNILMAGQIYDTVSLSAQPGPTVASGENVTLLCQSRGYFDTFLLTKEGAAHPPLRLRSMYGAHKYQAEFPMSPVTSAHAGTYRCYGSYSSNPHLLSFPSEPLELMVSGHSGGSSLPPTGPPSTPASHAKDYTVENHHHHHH

B1: Hz180-LALA (antibody, human IgG1, kappa, L234A L235A, V domains shown)
VH: QVQLVQSGAEVKKPGSSVKVSCKASGYSFIGYFMNWMRQAPGQGLEWIGRINPYNGDIFYNQKFKGRVTITVDKSTSTAYMELSSLRSEDTAVYYCARGITVAAGSFDVWGQGTTVTVSS
VL: DIVMTQSPDSLAVSLGERATINCRASESVDNYGNTFMHWYQQKPGQPPKLLIYRASNLESGIPDRFSGSGSGTDFTLTISSLQAEDVAVYYCQQSSDHPLTFGGGTKVEIKR
notes: Humanized L180S4, human IgG1 L234A/L235A, kappa; also called Humanized 180_04; Hz 180 04
Usually Kd stands for the constant that tells how readily two partners part at equilibrium. Usually kon stands for a measure of how fast the partners come together. In general, KD refers to the concentration at which binding is half-saturated. Broadly, the koff is a measure of how fast the partners let go of each other. Broadly, the IC50 is the midpoint of a concentration-inhibition curve. Consider B1, for which the equilibrium dissociation constant (Kd) in the test with LILRA3 [1] was 600 to 700 nM; in test [4], 0.000759 nM; in the test with LILRA3 [7] it was 600 to 700 nM; in test [8], not above 0.053 nM; in test [10], 0.0016 nM. The kon turned out to be 3.95e+06 M⁻¹ s⁻¹ in [2] and 812000 M⁻¹ s⁻¹ in [3]. For the same molecule, the dissociation constant (KD) in the test with LILRA3 [5] is 600 to 700 nM; in [6], less than 0.1 nM. Besides, the binding result with LILRB3, with LILRB4, with LILRA5, with LILRA4, with LILRA2 and with LILRA6 was “no binding (tested: 100 nM)” throughout. In addition, the binding result with LILRA1 is reported as “binds”. Besides, the values for the koff in test [8] and in [10] were not above 4.27e-05 s⁻¹ and 6.3e-06 s⁻¹, respectively. In addition, half-maximal inhibition in test [9] (IC50) required 0.051 µg/mL.
